Test results reported in patent US20190000928A1.
Positions of bridges follow the written chain, without caps; N, C: chain ends. Non-standard residues stand in square brackets, D forms with d. No end group written: not given here. L5 = not defined here; L6 = not defined here

B1: mTA 7: GLP-2 (G) and L6 (peptide)
chain: HGDGSFSDEMKTILDNLKARDFINWLIQTKITD
modifications: linker 11-18 via L6; reading uncertain; also: fatty acid attached to the staple, identity not given here
B2: mTA 6: GLP-1/Glucagon (D) and L5 (peptide)
chain: H[dS]QGTFTSDYSKYLDEKAAKEFIKWLLNGGPSSGAPPPS
modifications: linker 17-24 via L5; reading uncertain; also: fatty acid attached to the staple, identity not given here, printed as HsQGTFTSDYSKYLDEXAAKEFIXWLLNGGPSSGAPPPS

Experiments:
Experiment in all cases: cell-based or functional assay
[1] = target: human glucagon-like peptide 2 receptor (GLP-2R) (human) (UniProt O95838)
human glucagon-like peptide 2 receptor (GLP-2R) (human), sequence (O95838 whole entry): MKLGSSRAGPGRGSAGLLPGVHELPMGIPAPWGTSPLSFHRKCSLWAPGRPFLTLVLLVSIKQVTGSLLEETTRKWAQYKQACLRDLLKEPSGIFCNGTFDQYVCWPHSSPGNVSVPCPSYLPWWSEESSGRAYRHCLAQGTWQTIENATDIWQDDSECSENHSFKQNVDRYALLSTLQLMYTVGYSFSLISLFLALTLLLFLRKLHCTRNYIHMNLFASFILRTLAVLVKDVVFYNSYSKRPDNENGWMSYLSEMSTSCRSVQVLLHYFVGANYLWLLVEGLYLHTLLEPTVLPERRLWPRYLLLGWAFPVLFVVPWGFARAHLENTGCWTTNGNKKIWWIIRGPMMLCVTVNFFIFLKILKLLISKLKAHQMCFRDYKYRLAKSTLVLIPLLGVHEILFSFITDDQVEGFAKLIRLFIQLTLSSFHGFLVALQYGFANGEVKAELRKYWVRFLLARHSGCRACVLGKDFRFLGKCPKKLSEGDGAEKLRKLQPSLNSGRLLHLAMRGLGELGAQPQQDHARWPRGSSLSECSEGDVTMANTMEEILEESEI

[2] = target: human glucagon receptor (GCGR) (human) (UniProt P47871)
human glucagon receptor (GCGR) (human), sequence (P47871 26-477): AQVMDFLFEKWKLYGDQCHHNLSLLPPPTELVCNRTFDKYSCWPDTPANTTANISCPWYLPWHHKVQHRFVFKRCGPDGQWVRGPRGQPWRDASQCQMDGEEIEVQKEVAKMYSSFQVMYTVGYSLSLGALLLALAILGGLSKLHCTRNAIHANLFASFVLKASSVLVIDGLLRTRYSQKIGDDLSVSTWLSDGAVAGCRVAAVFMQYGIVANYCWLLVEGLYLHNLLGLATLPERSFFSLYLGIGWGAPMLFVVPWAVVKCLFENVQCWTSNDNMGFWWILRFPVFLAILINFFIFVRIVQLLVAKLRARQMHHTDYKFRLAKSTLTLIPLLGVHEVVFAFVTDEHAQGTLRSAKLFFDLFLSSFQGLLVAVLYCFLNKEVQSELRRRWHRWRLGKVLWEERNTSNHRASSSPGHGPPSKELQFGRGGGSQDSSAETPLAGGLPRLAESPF

[3] = target: human glucagon-like peptide 1 receptor (GLP-1R) (human) (UniProt P43220)
human glucagon-like peptide 1 receptor (GLP-1R) (human), sequence (P43220 24-463): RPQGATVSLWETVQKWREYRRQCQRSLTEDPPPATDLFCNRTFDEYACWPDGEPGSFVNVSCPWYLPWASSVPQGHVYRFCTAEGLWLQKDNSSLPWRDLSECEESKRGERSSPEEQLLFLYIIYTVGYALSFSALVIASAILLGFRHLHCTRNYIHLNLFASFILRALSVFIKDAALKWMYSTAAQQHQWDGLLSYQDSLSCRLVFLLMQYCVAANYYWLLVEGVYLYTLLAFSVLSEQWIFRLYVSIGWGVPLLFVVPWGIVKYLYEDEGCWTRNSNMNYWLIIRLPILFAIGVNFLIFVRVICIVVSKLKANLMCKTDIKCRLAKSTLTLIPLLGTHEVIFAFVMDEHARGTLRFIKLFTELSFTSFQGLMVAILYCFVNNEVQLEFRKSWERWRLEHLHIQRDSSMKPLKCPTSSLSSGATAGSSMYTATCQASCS

| Binder | GLP-2R (EC50, nM); CRE luciferase reporter in HEK293-GLP-2R-CRE cells [1] [nM] | GCGR (EC50, nM); CRE luciferase reporter in HEK293-GCGR-CRE cells [2] [nM] | GLP-1R (EC50, nM); CRE luciferase reporter in HEK293-GLP-1R-CRE cells [3] [nM] |
| --- | --- | --- | --- |
| B1 | 0.068 | – | – |
| B2 | – | 0.62 | 0.03 |
